The target of experiment [1] is Apocalmodulin (Calcium-free Calmodulin) (UniProt P0DP23 2-149). Put plainly: tryptophane fluorescence, 10 µM peptide, equimolar Apocalmodulin, 1 mM EGTA.
Another experiment has as its target Ca2+/Calmodulin (UniProt P0DP23 2-149). Put plainly: tryptophane fluorescence, 10 µM peptide, equimolar Calmodulin, excess calcium.

This is an account of results in patent US20060008800A1 (published 2006).

B1: Munc13-1 peptide reflecting the Calmodulin binding site of rat Munc13-1 (peptide)
peptide: CRAKANWLRAFNKVRMQLQEAR
notes: Synthesized and purified by standard procedures; used at 10 uM in the tryptophane fluorescence assay; also called peptide 13-1; Munc13-1 derived peptide
Turning to B1, the binding result (in experiment [1]; with Ca2+/Calmodulin) was “binds” in each case.
